Values of other authors, collected in doi:10.1101/390104.

Columns and labels:
Experiment in all cases: NMR
Settings in all cases: folded inactive HdeA dimer, client-free (inferred from context); cited from earlier work
Asp51 = Asp51 (UniProt position 72, EDAVLDVQGIA)
Glu46 = Glu46 (UniProt position 67, NKDKPEDAVLD)
Asp47 = Asp47 (UniProt position 68, KDKPEDAVLDV)

Substance: Acid stress chaperone HdeA (wild type) (Escherichia coli)
- pKa (Asp51): 3.83
- pKa (Glu46): 4.07
- pKa (Asp47): 4.14
